Source: US20260209362A1 (VIB VZW, published 2026)

T1: human IL-12Rβ2 (human, UniProt Q99665 24-862)
T1 construct: Expressed on HEK293T cells transiently transfected with a pcDNA3 plasmid (Genscript clone OHu21785); also called hIL-12RB2; IL-12 receptor β2 subunit
T1 sequence: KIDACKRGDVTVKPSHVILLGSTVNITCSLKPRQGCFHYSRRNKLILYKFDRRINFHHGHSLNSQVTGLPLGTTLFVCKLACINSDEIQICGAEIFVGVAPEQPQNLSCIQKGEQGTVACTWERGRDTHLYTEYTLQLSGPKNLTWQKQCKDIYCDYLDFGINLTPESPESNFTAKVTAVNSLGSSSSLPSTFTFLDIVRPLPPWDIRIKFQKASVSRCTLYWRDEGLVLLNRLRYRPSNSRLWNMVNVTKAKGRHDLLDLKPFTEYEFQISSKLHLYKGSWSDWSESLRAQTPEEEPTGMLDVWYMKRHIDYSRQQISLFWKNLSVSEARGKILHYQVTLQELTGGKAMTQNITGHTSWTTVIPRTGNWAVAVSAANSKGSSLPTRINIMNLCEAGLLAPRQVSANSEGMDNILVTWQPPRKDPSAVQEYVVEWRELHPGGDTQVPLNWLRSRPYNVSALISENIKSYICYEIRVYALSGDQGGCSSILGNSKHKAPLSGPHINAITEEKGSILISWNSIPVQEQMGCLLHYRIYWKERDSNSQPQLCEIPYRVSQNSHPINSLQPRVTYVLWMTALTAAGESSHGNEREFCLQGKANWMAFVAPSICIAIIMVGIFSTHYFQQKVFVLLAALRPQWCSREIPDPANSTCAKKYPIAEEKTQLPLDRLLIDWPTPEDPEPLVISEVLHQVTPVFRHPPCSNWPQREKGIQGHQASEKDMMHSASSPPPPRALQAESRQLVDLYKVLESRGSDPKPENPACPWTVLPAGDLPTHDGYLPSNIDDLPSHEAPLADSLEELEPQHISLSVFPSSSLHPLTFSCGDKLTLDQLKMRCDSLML


Target: T1, human IL-12Rβ2
Assay: flow cytometry, P.E. on transfected HEK293T cells

| Binder | % cells bound [%] | dMFI |
| --- | --- | --- |
| anti-IL-12Rβ2 VHH clone 3CAH48 (VHH, not shown: small tags and cut ends, periplasmic extract; also called 20360) VHH: QVQLQESGGGLVQAGGSLRLSCAASGRTFSSYAMGWFRQGPGKEREFVAAISWSGVSTYYADSVKGRFTISRDNAKNTVYLQMNSLRPEDTAVYYCAATEGAYTVAGGSTFGYDMDYWGKGTQVTVSS | 39.4 | 801 |
| anti-IL-12Rβ2 VHH clone 3CAHS142 (VHH, not shown: small tags and cut ends, periplasmic extract) VHH: QVQLQESGGGLVQAGESLTLSCIASGVIKDYAMGWFRQAPGKEREFVAAISWSGVSIYYADSVKGRFTISRDNAKNTVYLQMNSLEPEDTAVYYCAGTEGAYTVAGGSTFGYDMDYWGKGTQVTVSS | 40.9 | 912 |
| anti-IL-12Rβ2 VHH clone 3CRHS142 (VHH, not shown: small tags and cut ends, periplasmic extract) VHH: QVQLQESGGGLVQAGGSLRLSCVSSQTLVGIEAMGWYRQAPGKQRELVALITLNGGTFYADSVKGRFTISRDVAEHMLYLEMNSLNPEDTAVYFCVAGVESDNEEPTYWGQGTQVTVSS | 1.02 | 210 |
| anti-IL-12Rβ2 VHH clone 2CRHS4 (VHH, not shown: small tags and cut ends, periplasmic extract) VHH: QVQLQESGGGLVQPGGSLRLSCVSSQTLVGIEAMGWYRQAPGKQRELVALITLNGGTFYADSVKGRFTISRDVAGHMLYLEMNSLNPEDTAVYFCVAGVESDNEEPTYWGQGTQVTVSS | 3.55 | 254 |
| anti-IL-12Rβ2 VHH clone 3CRHS67 (VHH, not shown: small tags and cut ends, periplasmic extract) VHH: QVQLQESGGGLVQAGGSLTLSCVSSQTLVGIEAMGWYRQAPGKQRELVALITLNGGTFYADSVKGRFTISRDVAEHMLYLEMNSLNPEDTAVYFCVAGVESDNEEPTYWGQGTQVTVSS | 7.11 | 443 |
| anti-IL-12Rβ2 VHH clone 3CRHS156 (VHH, not shown: small tags and cut ends, periplasmic extract) VHH: QVQLQESGGGLVQSGGSLRLSCVSSQTLVGIEAMGWYRQAPGKQRELVALITLNGGTFYADSVKGRFAISRDVAEHMLYLEMNSLNPEDTAVYFCVAGVESDNEEPTYWGQGTQVTVSS | 1.51 | 222 |
| anti-IL-12Rβ2 VHH clone 3CRHS166 (VHH, not shown: small tags and cut ends, periplasmic extract) VHH: QVQLQESGGGLVQSGGSLRLSCVSSQTLVGIEAMGWYRQAPGKQRELVALITLNGGTFYADSVKGRFTISRDVAEHMLYLEMNSLNPEDTAVYFCVAGVESDNEEPTYWGQGTQVTVSS | 2.11 | 266 |
| anti-IL-12Rβ2 VHH clone 2CRH41 (VHH, not shown: small tags and cut ends, periplasmic extract; also called 20365) VHH: QVQLQESGGGLVQPGGSLRLSCTASGFAFSSYWMYWVRQSPEKGFEWVSVVDTDGGITYYADSVKGRFTISRDNAKNTLYLQMNSLKPQDTALYYCARDRTTLEYTRTYYRTGQGTQVTVSS | 31.6 | 583 |
| anti-IL-12Rβ2 VHH clone 3CRHS163 (VHH, not shown: small tags and cut ends, periplasmic extract) VHH: QVQLQESGGGLVQPGGSLRLSCTASGFAFSTYWMYWIRQSPEKGFEWVSVVNTGGDITYYADSVKGRFTISRDNAKNTLYLQMNSLKPEDTALYYCARDRTTMSYTRTYYRGGQGTQVTVSS | 43.7 | 1150 |
| anti-IL-12Rβ2 VHH clone 3CRH59 (VHH, not shown: small tags and cut ends, periplasmic extract) VHH: QVQLQESGGGLVQPGGSLRLSCTASGFAFSSYWMYWVRQTPGKGFEWVSVVNPGGEITYYGDSMEDRFTISRDNAKNTLYLQMNSLKPEDTGLYYCARDRTTIDYTRTYYRGGQGTQVTVSS | 46.1 | 1170 |
| anti-IL-12Rβ2 VHH clone 3CRHS99 (VHH, not shown: small tags and cut ends, periplasmic extract) VHH: QVQLQESGGGLVQPGGSLRLSCKASGFTFSTYAMSWVRQAPGKGLEWVSAINSGGLSTDYADSVEGRFTISRDDAKNMLFLQMNSLKAEDTARYYCAKYEDCSDYMCHRDRAGYWGQGTQVTVSS | 42.1 | 980 |
| anti-IL-12Rβ2 VHH clone 3CRHS106 (VHH, not shown: small tags and cut ends, periplasmic extract) VHH: QVQLQESGGGLVQPGGSLRLSCKASGFTFSTYAMSWVRQAPGKGLEWVSAVNSGGLSTDYADSVEGRFTISRDDAKNMLFLQMNSLKPEDTARYYCAKYEDCSDYMCHRDRAGYWGQGTQVTVSS | 43.3 | 1110 |
| anti-IL-12Rβ2 VHH clone 3CRH25 (VHH, not shown: small tags and cut ends, periplasmic extract) VHH: QVQLQESGGGLVQAGDSLRLSCTASGHTFSRYTTIGWFRQAPGKDREFVAAIRWSGDITDYADAVKGRFTISRDNVKNTVYLQMNSLNPEDTAVYYCARGYSEYGVLSRNRGLYAYWGQGTQVTVSS | 34.8 | 620 |
| anti-IL-12Rβ2 VHH clone 3CRH64 (VHH, not shown: small tags and cut ends, periplasmic extract) VHH: QVQLQESGGGLVQAGGSLRLSCTASGHTFSRYTTIGWFRQAPGKDREFVAAIRWSGDITDYADAVKGRFTISRDNVKNTVYLQTNSLNPEDTAVYYCARGYSEYGVLSRNRGLYAYWGQGTQVTVSS | 31 | 645 |
| anti-IL-12Rβ2 VHH clone 3CRHS77 (VHH, not shown: small tags and cut ends, periplasmic extract) VHH: QVQLQESGGGLVQAGGSLRLSCTASGHTFSSYTTIGWFRQAPGKEREFVAAIGWSGDITDYADAVKGRFTISRHNVENTVYLQMNSLNPEDTAVYYCARGYSEYGVLSRNRGLYAYWGQGTQVTVSS | 37.7 | 867 |
| anti-IL-12Rβ2 VHH clone 3CAH32 (VHH, not shown: small tags and cut ends, periplasmic extract; also called 20357) VHH: QVQLQESGGGLVQPGGSLRLSCAASGSILRINLMGWYRQVPGKQRELVAEMSTGGSTTYVDSVKGRFTISRDNAKNTVYLQMNSLKPEDTAVYYCNAKAWQLGRLENDDWGQGTQVTVSS | 40 | 742 |
| anti-IL-12Rβ2 VHH clone 3CAHS102 (VHH, not shown: small tags and cut ends, periplasmic extract) VHH: QVQLQESGGGLVQPGGSLRLSCAASGSILRINLMGWYRQVPGKQRELVAEMSTGGSTTYVDSVEGRFTISRDNAKNTVYLQMNSLKPEDTAVYYCNAKAWQLGRLENDDWGQGTQVTVSS | 44.7 | 1090 |
| anti-IL-12Rβ2 VHH clone 3CAHS79 (VHH, not shown: small tags and cut ends, periplasmic extract) VHH: QVQLQESGGGLVQPGGSLRLTCVASGFPFSTHAMSWVRQPPGKGREWISAINSGGDSTDYADSVMGRFTISRDNAKNTVYLQMNSLKSEDTAVYYCAKYEDCSDYDCSSRASWGQGTQVTVSS | 46.1 | 1230 |
| anti-IL-12Rβ2 VHH clone 3CAHS171 (VHH, not shown: small tags and cut ends, periplasmic extract) VHH: QVQLQESGGGLVQPGGSLRLTCVASGFPFSTHAMSWVRQPPGKGREWISAINSGGDSTDYADSVMGRFTISRDNAKNTVYLQMNSLKSEDTAAYYCAKYEDCSDYDCSSRASWGQGTQVTVSS | 47.5 | 1280 |
| anti-IL-12Rβ2 VHH clone 3CRHS31 (VHH, not shown: small tags and cut ends, periplasmic extract) VHH: QVQLQESGGGLVQAGGSLRLSCAASGFTFSTYAMSWVRQAPGKGLEWVSSVNSGGLSTDYADSVEGRFTISRDDAKNMLFLQMNSLKPEDTARYYCAKYEDCSDYVCDRAGYWGQGTQVTVSS | 42.8 | 977 |
| anti-IL-12Rβ2 VHH clone 3CRHS51 (VHH, not shown: small tags and cut ends, periplasmic extract) VHH: QVQLQESGGGLVQPGGSLRLSCAASGFTFSTYAMSWVRQAPGKGLEWVSAVNSGGLSTDYADSVEGRFTISRDDAKNMLFLQMNRLKPEDTARYYCAKYEDCSDYVCDRAGYWGQGTQVTVSS | 46 | 1240 |
| anti-IL-12Rβ2 VHH clone 3CAHS41 (VHH, not shown: small tags and cut ends, periplasmic extract) VHH: QVQLQESGGGLVQAGDSLRLSCAASGRTFDTYIVGWFRQAPGKEREFVSALSWSDDTTIRDDSLRGRFTISRDNAKNTVYLLMNSLKPEDTAVYYCAAKAKPPAATWSSYRNREWYDYWGQGTQVTVSS | 43.3 | 1070 |
| anti-IL-12Rβ2 VHH clone 3CAHS180 (VHH, not shown: small tags and cut ends, periplasmic extract) VHH: QVQLQESGGGLVQAGDSLRLSCAASGRTFDTYIVGWFRQAPGKEREFVSALSWSDDTTIRDDSLRGRFTLSRDNAKNTVYLLMNSLKPEDTAVYYCAAKAKPPAATWSSYRNREWYDYWGQGTQVTVSS | 42.6 | 1010 |
| anti-IL-12Rβ2 VHH clone 3CRH28 (VHH, not shown: small tags and cut ends, periplasmic extract) VHH: QVQLQESGGGLVQPGGSLTLSCAASGFTFSSNAMSWVRQAPGKGLEWVSSISSGGGTTYYTDSVKGRFTTARDNAKNTLYLRMNSLKPEDTAVYYCSKSSTGSGSRGQGTQVTVSS | 44.6 | 1110 |
| anti-IL-12Rβ2 VHH clone 3CRH83 (VHH, not shown: small tags and cut ends, periplasmic extract) VHH: QVQLQESGGGLVQAGGSLKLSCAASGNTFSINAMAWYRQAPGQELELVAAISDVGNTIYADSMKGRFTISRGNADNTVYLQMNSLKPEDTATYYCNAGTFYTSPGDSYYRGYDFWGQGTQVTVSS | 28.3 | 602 |
| anti-IL-12Rβ2 VHH clone 3CAH28 (VHH, not shown: small tags and cut ends, periplasmic extract; also called 20356) VHH: QVQLQESGGGLVQSGASLRLSCAASERTLSGYAMGWFRQAPGKEREFVAAIRWSGSSTYYAESVEGRFTISRDNAKNTVYLQMNILKPEDTAVYYCAAGSDYADEYDYWGQGTQVTVSS | 0.15 | 37 |
| anti-IL-12Rβ2 VHH clone 3CAH60 (VHH, not shown: small tags and cut ends, periplasmic extract; also called 20361) VHH: QVQLQESGGGLVQPGGSLILSCVASGFAMDYLTMGWSREAPRNEREDISCIDTSGRSTDYLDSVKGRFTISRDNAKNTLYLHMNDLKPEDTAEYYCLASTSYCGAGYEYRGQGTQVTVSS | 0.1 | 18 |
